The record followed here is PMC5226681.

Data set [1] can be described thus: TZM-bl pseudovirus neutralization, plateau. The following applies: control: CAP45 pseudovirus grown normally in 293T.
Data set [2] in a line: TZM-bl pseudovirus neutralization. The following applies: glycan lost; control: wild-type CAP45.

With “HIV-1 envelope glycoprotein (Env, gp160) CAP45: 293S GnTI(-/-) cells”, the “other: neutralisation sensitivity” value in data set [1] (glycan changed form) is listed as “no change”.

Take “HIV-1 envelope glycoprotein (Env, gp160) CAP45: N230D”: in data set [2], the “other: neutralisation sensitivity” value is recorded as “no change”.

Take “HIV-1 envelope glycoprotein (Env, gp160) CAP45: N276A”: in data set [2], the “other: neutralisation sensitivity” value was “abolishes”.

As to “HIV-1 envelope glycoprotein (Env, gp160) CAP45: N276D”, in data set [2], the “other: neutralisation sensitivity” value is “decreases”.

For the substance “HIV-1 envelope glycoprotein (Env, gp160) CAP45: N611D”, the “other: neutralisation sensitivity” value in data set [2] is “decreases”.

Consider “HIV-1 envelope glycoprotein (Env, gp160) CAP45: benzyl 2-acetamido-2-deoxy-α-D-galactopyranoside”, for which, in data set [1] (glycan lost), the “other: neutralisation sensitivity” value was “no change”.

Take “HIV-1 envelope glycoprotein (Env, gp160) CAP45: kifunensine”: the “other: neutralisation sensitivity” value in data set [1] (glycan changed form) is recorded as “no change”.

Consider “HIV-1 envelope glycoprotein (Env, gp160) CAP45: swainsonine”, for which, in data set [1] (glycan changed form), the “other: neutralisation sensitivity” value was “no change”.
